Data on 10 molecules can be found in patent US20250346668A1 (GENOR BIOPHARMA, published 2025).

Assay [1] deals with T1, human CD3e/g antigen (ACRO, catalog number CDG-H52W5) (human, UniProt P07766 23-126; P09693 23-116).
T1 construct: Bought reagent used as the Biacore analyte; also called hCD3e/g
In words: SPR (Biacore 8K), antibody captured via anti-human Fc. How it is done: The equilibrium dissociation constant of binding of CD3 antibodies to human CD3e/g antigen (purchased from ACRO, catalog number CDG-H52W5) was determined by kinetic binding method using Biacore 8K (GE) system. Through the capture method, the carboxylated dextran surface of CM5 chip was first activated with NHS (N-hydroxysuccinimide) and EDC (1-(3-dimethylaminopropyl)-3-ethylcarbodiimide hydrochloride), and then added with an anti-human IgG (Fc) antibody, the free amino group of which could form an amide bond with the activated carboxyl group, thereby being fixed on the chip surface. The anti-human IgG (Fc) antibody could bind to the Fc end of CD3 antibodies to capture the antibodies, and then a series of concentrations of antigen were added to obtain the binding and dissociation curves of antibody and antigen, and the corresponding kinetic constants were calculated by Biacore Evaluation software, as shown in the table below.
In general terms: In SPR one partner is held on a chip, and binding of the other changes the refractive index at the surface.

Assay [2] concerns the target T2, CD3 on Jurkat cells (human).
T2 construct: native, on the surface of Jurkat cells; The sheets print only 'Jurkat'; also called human CD3; TCR/CD3 complex on the human T cell line Jurkat
Description: FACS on Jurkat cells, Alexa 488 secondary antibody, MFI [c]. How it is done: (§1) Jurkat cells were amplificatorily cultured to 3×10⁶/ml in a T-175 cell culture flask, the culture medium was removed by centrifugation, and the cells were washed twice with PBS buffer (purchased from Invitrogen). After cell counting, the cells were diluted to 2×10⁶ cells/ml with PBS buffer, added with 1% BSA blocking solution, where the percentage was a mass percentage, incubated on ice for 30 minutes, and then washed twice with PBS buffer by centrifugation. The collected cells were suspended to 2×10⁶ cells/mL with FACS buffer (PBS+1% BSA, where the percentage was a mass percentage), and added to a 96-well FACS reaction plate at 100 μl per well, and samples of the purified CD3 antibodies obtained in Example 4 to be tested were added at 100 μl per well, and incubated at 4° C. for 2 hours. The plate was washed twice with FACS buffer by centrifugation, added with 100 μl per well of fluorescent (Alexa 488) labeled secondary antibody (purchased from Jackson), and incubated at 4° C. for 1 hour. After washing 3 times by centrifugation with FACS buffer, the cells were suspended with 100 μl of FACS buffer, and detected and analyzed using BD FACS LSRFortessa (purchased from BD). The results are shown in FIG. 5, where the IgG control is human IgG1 (hIgG).

Assay [3] addresses T2, CD3 on Jurkat cells. Description: FACS on Jurkat cells, Alexa 488 secondary antibody, MFI [a]. How it is done:
as §1

In assay [4] the target is T2, CD3 on Jurkat cells. Description: FACS on Jurkat cells, Alexa 488 secondary antibody, MFI [b]. How it is done: as §1
Assay [5] concerns the target T3, human CD3e/d protein (Sinobiological, CAT: CT038-H2508H-B) (human, UniProt P07766 23-126; P04234 22-105).
T3 construct: Bought reagent; also called hCD3e/d
In words: ELISA, coated hCD3e/d. Here is the method: (§2) Human CD3e/g protein, cynomolgus monkey CD3e/g protein (sequences shown in Table 1) or human CD3e/d protein was diluted with PBS to a final concentration of 5.0 μg/mL, and then added with 100 μl per well to a 96-well ELISA plate. The plate was sealed with plastic film and incubated overnight at 4° C. The plate was washed twice with plate washing solution [PBS+0.01% (v/v) Tween 20] on the next day, and was added with blocking solution [PBS+0.01% (v/v) Tween 20+1% (w/w) BSA] to block at room temperature for 2 hours. The blocking solution was poured off, and 100 μl per well of the purified CD3e/g antibody obtained in Example 2 was added. After incubation at 37° C. for 2 hours, the plate was washed 3 times with plate washing solution [PBS+0.01% (v/v) Tween20]. After adding HRP (horseradish peroxidase) labeled secondary antibody (purchased from Sigma), the plate was incubated at 37° C. for 2 hours, washed 3 times with plate washing solution [PBS+0.01% (v/v) Tween 20]. After adding 100 μl per well of TMB substrate and incubating at room temperature for 30 minutes, 100 μl per well of stop solution (1.0N HCl) was added. […] FIG. 2 and Table 3 show the binding activities of CD3e/g antibodies to hCD3e/g as detected by ELISA, and FIG. 3 and Table 4 show the binding activities of CD3e/g antibodies to cyno CD3e/g as detected by ELISA, wherein the IgG control is mouse IgG, and the data in the tables are OD_{450 nm} values. Among them, HIT3a was purchased from BD pharmigen with a catalog number 555336; SP34 was purchased from BD pharmigen with a catalog number 551916. OKT3 was purchased from Biolegend.
(An ELISA detects its analyte on a solid surface through an enzyme-linked reagent.)

In assay [6] the target is T4, Cynomolgus monkey CD3e/g protein (cynomolgus monkey).
T4 construct: also called cyno CD3e/g; cCD3e/g
Description: ELISA, coated cyno CD3e/g. How it is done:
as §2

B1: hAb008-26 (antibody, V domains shown)
VH: QVQLVQSGAEVKKPGASVKVSCKASGYTFTDYTVNWVRQAPGQRLEWIGYINPFNSYTKYNQKFKDRATITADTSASTAYMELSSLRSEDTAVYFCANSVSTYWGQGTTVTVSS
VL: DVVMTQSPLSLPVTLGQPASISCKSSQSLLDSDGKTYLNWLQQRPGQSPRRLIQLVSKLNSGVPDRFSGSGSGTDFTLKISRVEAEDVGVFYCWQGTHFPRTFGGGTKLEIK
notes: Humanized; constant regions not specified
By Kd is commonly meant the concentration at which binding is half-saturated. Usually koff stands for the first-order rate constant of dissociation. For orientation: kon means the rate constant with which the complex forms. In general, EC50 (read off the curve) refers to the concentration at which the effect is half-maximal. B1: in assay [1], binding was put at a Kd of 18.1 nM, the koff worked out at 0.00482 s⁻¹ and the kon worked out at 266000 M⁻¹ s⁻¹. Besides, the 50% effective concentration (EC50 (read off the curve)) in assay [2] is ~2 nM.

B2: hAb001-21 (antibody, V domains shown)
VH: QVQLVQSGAEVKKPGASVKVSCKASGYSFTNYYMHWVRQAPGQRLEWIGWTYPGNNNIKYNEKFKGRVTITADTSASTAYMELSSLRSEDTAVYYCARDGYGYYFFDYWGQGTLVTVSS
VL: DIVMTQSPDSLAVSLGERATINCKSSQSLLNNRTRKNYLAWYQQKPGQPPKLLIYWASTRESGVPDRFSGSGSGTDFTLTISSLQAEDVAVYYCKQSYTLRTFGGGTKLEIK
notes: as for B1
As for B2, in assay [1], the dissociation constant (Kd) is 16.8 nM, the koff was 0.00669 s⁻¹ and the association rate constant (kon) turned out to be 398000 M⁻¹ s⁻¹. Also, the “EC50 (read off the curve)” value in assay [3] was ~0.3 nM.

B3: hAb001-26 (antibody, V domains shown)
VH: QVQLVQSGAEVKKPGASVKVSCKASGYSFTNYYMHWVRQAPGQRLEWIGWTYPGNNNIKYNEKFKGRATITADTSASTAYMELSSLRSEDTAVYYCARDGYGYYFFDYWGQGTLVTVSS
VL: DIVMTQSPDSLAVSLGERATINCKSSQSLLNNRTRKNYLAWYQQKPGQPPKLLIYWASTRESGVPDRFTGSGSGTDFTLTISSLQAEDVAVYYCKQSYTLRTFGGGTKLEIK
notes: as for B1
In the case of B3, in assay [1], the dissociation constant (Kd) came out at 17.4 nM, the koff is 0.00673 s⁻¹ and the kon amounted to 386000 M⁻¹ s⁻¹. In addition, the “EC50 (read off the curve)” value in assay [3] is ~0.3 nM.

B4: hAb001-23 (antibody, V domains shown)
VH: QVQLVQSGAEVKKPGASVKVSCKASGYSFTNYYMHWVRQAPGQRLEWIGWTYPGNNNIKYNEKFKGRVTITADTSASTAYMELSSLRSEDTAVYYCARDGYGYYFFDYWGQGTLVTVSS
VL: DIVMTQSPDSLAVSLGERATMSCKSSQSLLNNRTRKNYLAWYQQKPGQPPKLLIYWASTRESGVPDRFSGSGSGTDFTLTISSLQAEDVAVYYCKQSYTLRTFGGGTKLEIK
notes: as for B1
On to B4, for which, in assay [1], binding was characterised by a dissociation constant (Kd) of 17.4 nM, the dissociation rate constant (koff) was 0.00696 s⁻¹ and the kon turned out to be 401000 M⁻¹ s⁻¹. Besides, in assay [3], the “EC50 (read off the curve)” value is ~0.3 nM.

B5: hAb001-22 (antibody, V domains shown)
VH: QVQLVQSGAEVKKPGASVKVSCKASGYSFTNYYMHWVRQAPGQRLEWIGWTYPGNNNIKYNEKFKGRVTITADTSASTAYMELSSLRSEDTAVYYCARDGYGYYFFDYWGQGTLVTVSS
VL: DIVMTQSPDSLAVSLGERATINCKSSQSLLNNRTRKNYLAWYQQKPGQPPKLLIYWASTRESGVPDRFTGSGSGTDFTLTISSLQAEDVAVYYCKQSYTLRTFGGGTKLEIK
notes: as for B1
In assay [1], B5 yielded a Kd of 20.4 nM, a koff of 0.00848 s⁻¹ and a kon of 416000 M⁻¹ s⁻¹. Besides, in assay [3], the 50% effective concentration (EC50 (read off the curve)) was ~0.3 nM.

B6: hAb001-28 (antibody, V domains shown)
VH: QVQLVQSGAEVKKPGASVKVSCKASGYSFTNYYMHWVRQAPGQRLEWIGWTYPGNNNIKYNEKFKGRATITADTSASTAYMELSSLRSEDTAVYYCARDGYGYYFFDYWGQGTLVTVSS
VL: DIVMTQSPDSLAVSLGERATMSCKSSQSLLNNRTRKNYLAWYQQKPGQPPKLLIYWASTRESGVPDRFTGSGSGTDFTLTISSLQAEDVAVYYCKQSYTLRTFGGGTKLEIK
notes: as for B1
As to B6, in assay [1], binding was put at a Kd of 20.4 nM, the koff was 0.00745 s⁻¹ and the association rate constant (kon) was determined as 365000 M⁻¹ s⁻¹. Besides, in assay [3], the half-maximal effective concentration (EC50 (read off the curve)) was ~0.3 nM.

B7: hAb001-27 (antibody, V domains shown)
VH: QVQLVQSGAEVKKPGASVKVSCKASGYSFTNYYMHWVRQAPGQRLEWIGWTYPGNNNIKYNEKFKGRATITADTSASTAYMELSSLRSEDTAVYYCARDGYGYYFFDYWGQGTLVTVSS
VL: DIVMTQSPDSLAVSLGERATMSCKSSQSLLNNRTRKNYLAWYQQKPGQPPKLLIYWASTRESGVPDRFSGSGSGTDFTLTISSLQAEDVAVYYCKQSYTLRTFGGGTKLEIK
notes: as for B1
In assay [1], B7 returned a Kd of 21 nM, a dissociation rate constant (koff) of 0.00823 s⁻¹ and a kon of 391000 M⁻¹ s⁻¹. Moreover, the 50% effective concentration (EC50 (read off the curve)) in assay [3] was ~0.3 nM.

B8: CAb007 (antibody, V domains shown)
VH: QVQLQQSGPELVKPGASVKISCKASGSTFTDNYIHWVKQRPGQGLEWIGWIYPGSVNIKYNEKFKDKATLTADTSSTTAYMQLSSLSSEDSAIYYCARDISRYYFDYWGQGTTLTVSS
VL: DIVMSQSPSSLAVSAGERVTMNCKSSQSLLNSRTRKNYLAWYQQKPGQSPKLLIYWASTRESGVPDRFTGSGSGTDFTLTISSVQAEDLAVYYCKQSFILRTFGGGTKLAIK
notes: Chimeric: mouse variable regions linked to human light and heavy constant regions; constant regions not specified
In assay [1], B8 registered a Kd of 12.1 nM, a koff of 0.00532 s⁻¹ and a kon of 438000 M⁻¹ s⁻¹. Also, in assay [4], the “EC50 (read off the curve)” value is ~0.1 nM.

B9: CAb001 (antibody, V domains shown)
VH: QVQLQQSGPELVKPGASVKISCKASGYSFTNYYMHWVKQRPGQGLEWIGWTYPGNNNIKYNEKFKGKATLTADTSSSTAYMQLSSLTSEDSAVYYCARDGYGYYFFDYWGQGIILTVSS
VL: DIVMSQSPSSLAVSAGEKVTMSCKSSQSLLNNRTRKNYLAWYQQKPGQSPKLLIYWASTRESGVPDRFTGSGSGTDFTLTISSVQAEDLAIYYCKQSYTLRTFGGGTKLAIK
notes: as for B8
Regarding B9, in assay [1], the Kd worked out at 23.1 nM, the off-rate (koff) was 0.00616 s⁻¹ and the kon was found to be 267000 M⁻¹ s⁻¹. Besides, the “EC50 (read off the curve)” value in assay [3] was ~0.3 nM.

B10: mAb009 (antibody, V domains shown)
VH: QVQLQQSGAELTRPGASVKMSCKASGYTFTDYTIHWVKQRPGQGLEWIGYINPFSDYTKYNQKFKDKATLTADKSSSTAYIQLNSLTSEDSAVYYCANSVSIYWGQGTTLTVSS
VL: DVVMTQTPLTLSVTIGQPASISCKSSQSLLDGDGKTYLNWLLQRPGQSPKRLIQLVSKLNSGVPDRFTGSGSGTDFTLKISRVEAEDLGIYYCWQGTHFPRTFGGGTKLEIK
notes: Mouse hybridoma antibody
As a reminder, the EC50 is the concentration that produces a half-maximal response. On to B10, for which, in assay [5], the EC50 is 0.027 nM, the “Emax (OD)” value is 3.03 OD, the “OD450 nm at 0.00128 nM” value came to 0.24 OD450 nm and the “OD450 nm at 0.0064 nM” value was 0.66 OD450 nm. Moreover, in assay [5], the “OD450 nm at 0.032 nM” value is 1.67 OD450 nm, the “OD450 nm at 0.16 nM” value is 2.64 OD450 nm, the “OD450 nm at 0.8 nM” value stood at 2.85 OD450 nm and the “OD450 nm at 4 nM” value is 2.97 OD450 nm. In addition, in assay [5], the “OD450 nm at 20 nM” value was 3.02 OD450 nm and the “OD450 nm at 100 nM” value was determined as 3.03 OD450 nm. In assay [6], the midpoint of the response, the EC50, lay at 0.32 nM; the “OD450 nm at 0.000853 nM” value was 0.0755 OD450 nm; the “OD450 nm at 0.0043 nM” value worked out at 0.126 OD450 nm; the “OD450 nm at 0.02 nM” value is 0.19 OD450 nm. In addition, in assay [6], the “OD450 nm at 0.11 nM” value is 0.63 OD450 nm, the “OD450 nm at 0.53 nM” value amounted to 2.44 OD450 nm, the “OD450 nm at 2.67 nM” value turned out to be 3.41 OD450 nm and the “OD450 nm at 13.3 nM” value is 3.54 OD450 nm. Further, the “OD450 nm at 66.7 nM” value in assay [6] is 3.46 OD450 nm.
